Data: the supplement of paper PMC10567573

B1: STEAP1 (parent)
chain: LWKMKPRRNLEEDDYLHKDTGETS
B2: KRT18 (parent)
chain: PQVRDWSHYFKIIEDLRAQIFANT

Variants of: B1
Experiment: protein stability index of a GFP-peptide fusion (GPS, HEK-293T) (PSI 1-6); higher = more stable
Settings: c terminus: a fixed tail appended
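Further: lentivirally expressed fusions sorted by FACS into six bins by GFP to DsRed ratio, PSI derived from sequencing read proportions per bin multiplied by bin number.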

Variant | protein stability index
CWKMKPRRNLEEDDYLHKDTGETS [L1C] | 4.43
PWKMKPRRNLEEDDYLHKDTGETS [L1P] | 5.08
IWKMKPRRNLEEDDYLHKDTGETS [L1I] | 3.97
HWKMKPRRNLEEDDYLHKDTGETS [L1H] | 4.92
MWKMKPRRNLEEDDYLHKDTGETS [L1M] | 4.59
KWKMKPRRNLEEDDYLHKDTGETS [L1K] | 4.57
RWKMKPRRNLEEDDYLHKDTGETS [L1R] | 4.8
DWKMKPRRNLEEDDYLHKDTGETS [L1D] | 5.23
SWKMKPRRNLEEDDYLHKDTGETS [L1S] | 4.78
AWKMKPRRNLEEDDYLHKDTGETS [L1A] | 5.06
EWKMKPRRNLEEDDYLHKDTGETS [L1E] | 5.32
FWKMKPRRNLEEDDYLHKDTGETS [L1F] | 4.31
GWKMKPRRNLEEDDYLHKDTGETS [L1G] | 4.75
NWKMKPRRNLEEDDYLHKDTGETS [L1N] | 4.84
TWKMKPRRNLEEDDYLHKDTGETS [L1T] | 5
QWKMKPRRNLEEDDYLHKDTGETS [L1Q] | 5.18

Variants of: B2
Experiment: as above
Settings: c terminus: a fixed tail appended

Variant | protein stability index
PQVRDWKHYFKIIEDLRAQIFANT [S7K] | 2.36
PQVRDWEHYFKIIEDLRAQIFANT [S7E] | 2.12
PQVRDWAHYFKIIEDLRAQIFANT [S7A] | 2.53
PQVPDWSHYFKIIEDLRAQIFANT [R4P] | 2.47
PQVWDWSHYFKIIEDLRAQIFANT [R4W] | 2.58
PQVGDWSHYFKIIEDLRAQIFANT [R4G] | 2.37
PQVDDWSHYFKIIEDLRAQIFANT [R4D] | 2.84
PQVRDWSHYFKIIKDLRAQIFANT [E14K] | 2.77
PQVRDWSHYFKIIRDLRAQIFANT [E14R] | 2.27
PQVRDWSHYFKIISDLRAQIFANT [E14S] | 2.26
PQVRDWSHYFKIIIDLRAQIFANT [E14I] | 2.46
PQVRDWSHYFKIIEDLRAQIFAHT [N23H] | 2.35
PQVRDWSHYFKIIEDLRAQIFAYT [N23Y] | 1.56
PQVRDWSHYFKIIEDLRAQIFAQT [N23Q] | 1.86
PQVRDWSHYFKIIEDLCAQIFANT [R17C] | 1.62
PQVRDWSHYFKIIEDLMAQIFANT [R17M] | 2.12
PQVRDWSHYFKIIEDLYAQIFANT [R17Y] | 1.51
PQVRDWSHYFKIIEDLLAQIFANT [R17L] | 1.96
PQVRDWSHYFKIIEDLAAQIFANT [R17A] | 2.14
PQVRDWSHYFKIIEDLKAQIFANT [R17K] | 3.07
PQVRDWSHYFKIIEDLGAQIFANT [R17G] | 2.3
PQVRDWSHYFKIIEDLWAQIFANT [R17W] | 1.97
PQVRDWSHYFKIIEDLRAQIYANT [F21Y] | 3.6
PQVRDWSHYFKIIEDLRAQIDANT [F21D] | 3.27
PQVRDWSHYFKIIEDLRAQISANT [F21S] | 2.32
PQVRDWSHYFKIIEDLRAQIRANT [F21R] | 2.33

Variant | protein stability index
PQVRDWSHYFKIIEDLRAQITANT [F21T] | 1.97
HQVRDWSHYFKIIEDLRAQIFANT [P1H] | 1.99
FQVRDWSHYFKIIEDLRAQIFANT [P1F] | 1.7
PQVRDWSHYFKIIEDLRAPIFANT [Q19P] | 1.97
PQVRDWSHYFKIIEDLRALIFANT [Q19L] | 1.79
PQVRDWSHYKKIIEDLRAQIFANT [F10K] | 1.86
PQVRDWSHYMKIIEDLRAQIFANT [F10M] | 2.56
PQVRDWSHYHKIIEDLRAQIFANT [F10H] | 2.57
PQVRDWSHYEKIIEDLRAQIFANT [F10E] | 2.26
PQVRDWSHYFKIQEDLRAQIFANT [I13Q] | 2.75
PQVRDWSCYFKIIEDLRAQIFANT [H8C] | 1.78
PQVRDWSDYFKIIEDLRAQIFANT [H8D] | 1.92
PQVRDWSKYFKIIEDLRAQIFANT [H8K] | 2.59
PQVRDWSRYFKIIEDLRAQIFANT [H8R] | 1.98
PQVRDWSMYFKIIEDLRAQIFANT [H8M] | 2.28
PEVRDWSHYFKIIEDLRAQIFANT [Q2E] | 2.63
PIVRDWSHYFKIIEDLRAQIFANT [Q2I] | 2.92
PQVRDWSHCFKIIEDLRAQIFANT [Y9C] | 1.97
PQVRDWSHEFKIIEDLRAQIFANT [Y9E] | 2.55
PQVRDWSHIFKIIEDLRAQIFANT [Y9I] | 2.12
PQVRDWSHYFKIIEDLRAQIFANN [T24N] | 2.74
PQVRDWSHYFKIIEDLRAQIFANV [T24V] | 2.04
PQVRDWSHYFKIIEDLRAQIFANA [T24A] | 1.9
PQVRDWSHYFKCIEDLRAQIFANT [I12C] | 2.38
PQVRDWSHYFKYIEDLRAQIFANT [I12Y] | 2.2
PQVRFWSHYFKIIEDLRAQIFANT [D5F] | 1.88

Variant | protein stability index
PQVRCWSHYFKIIEDLRAQIFANT [D5C] | 2.2
PQVRNWSHYFKIIEDLRAQIFANT [D5N] | 2.16
PQVRDWSHYFAIIEDLRAQIFANT [K11A] | 2.1
PQVRDWSHYFVIIEDLRAQIFANT [K11V] | 2.99
PQVRDWSHYFMIIEDLRAQIFANT [K11M] | 1.42
PQVRDWSHYFLIIEDLRAQIFANT [K11L] | 3.02
PQVRDWSHYFKIIEDLRAQHFANT [I20H] | 1.89
PQVRDWSHYFKIIEDLRAQMFANT [I20M] | 2.15
PQVRDWSHYFKIIEPLRAQIFANT [D15P] | 1.4
PQVRDWSHYFKIIESLRAQIFANT [D15S] | 2.09
PQVRDWSHYFKIIEILRAQIFANT [D15I] | 1.74
PQVRDRSHYFKIIEDLRAQIFANT [W6R] | 2.13
PQVRDKSHYFKIIEDLRAQIFANT [W6K] | 1.97
PQVRDSSHYFKIIEDLRAQIFANT [W6S] | 2.14
PQDRDWSHYFKIIEDLRAQIFANT [V3D] | 2.39
PQVRDWSHYFKIIEDLRAQIFYNT [A22Y] | 1.64
PQVRDWSHYFKIIEDLRAQIFVNT [A22V] | 2.01
PQVRDWSHYFKIIEDLRAQIFRNT [A22R] | 1.99
PQVRDWSHYFKIIEDLRAQIFWNT [A22W] | 1.41
PQVRDWSHYFKIIEDLRAQIFDNT [A22D] | 2.49
PQVRDWSHYFKIIEDYRAQIFANT [L16Y] | 2.26
PQVRDWSHYFKIIEDTRAQIFANT [L16T] | 2.09
PQVRDWSHYFKIIEDHRAQIFANT [L16H] | 2.13
PQVRDWSHYFKIIEDGRAQIFANT [L16G] | 2.32
PQVRDWSHYFKIIEDLRRQIFANT [A18R] | 2.44
PQVRDWSHYFKIIEDLRHQIFANT [A18H] | 1.88
